Test results published in PMC10312659.

Target: Polyketide synthase 13 (Pks13) of Mycobacterium smegmatis, endogenous, with native substrates bound (Mycobacterium smegmatis) (UniProt A0R617)
Test: SEC

stoichiometry N: 4
Substance: Polyketide synthase 13 (Pks13) of Mycobacterium smegmatis, endogenous, with native substrates bound (from UniProt A0R617 1-1816) (enzyme)
